Blank lines part the entries; values can stand above or below the binder they belong to.
Tests used:
[1] = target: T1, human IL4 (IL004, Millipore) (human, UniProt P05112 25-153); experiment: SPR, Biacore 3000, antibody captured by anti-human Fc, IL4 as analyte; HEK293-FS expression, processed in vivo
T1 construct: Commercial recombinant antigen; also called Antigen IL4
T1 sequence (looked up): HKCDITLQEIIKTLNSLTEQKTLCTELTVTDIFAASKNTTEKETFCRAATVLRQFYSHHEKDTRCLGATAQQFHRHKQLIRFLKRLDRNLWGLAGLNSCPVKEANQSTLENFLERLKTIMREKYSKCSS
Protocol: (§1) Binding of antigens to the antibody constructs was measured using surface plasmon resonance (SPR) with a BlAcore 3000 instrument (GE Healthcare) with HBS-EP buffer (GE Healthcare). As antigens, human IL4 (IL004, Millipore) and human IL13 (IL012, Millipore) were used. The antihuman Fc capture antibody (human antibody capture kit, GE Life Sciences) was immobilized via primary amine groups (11000 RU) on a research grade CM5 chip (GE Life Sciences) using standard procedures. […] The tested antibody constructs were […] and injected at 100 nM concentration for 240 sec with a dissociation time of 300 sec at a flow rate of 30 µL/min. For human IL4 and IL13, a dilution series of 0.1 nM to 3 nM and 0.8 nM to 25 nM, respectively were used. Chip surfaces were regenerated with 2 min injects of the regeneration buffer provided with the capture kit. Sensorgrams were double-referenced with a blank chip surface and HBS-EP buffer blanks. Data analysis was performed using the BIAevaluation software v4.1.
(§2) The binding of the different bispecific Tandem-IgG constructs expressed in HEK293-FS or ExpiCHO cells as well as in vivo processed Tandem-IgG from the co-transfection with Furin variants was measured via surface plasmon resonance (SPR). The binding to the two human antigens IL4 and IL13 were compared to the binding characteristics of the individual monoclonal antibodies. […] In contrast, specific binding to IL13 was only detectable for in vivo processed Tandem-IgGs as well as the Tandem-lgG control comprising two LCs. […] Thus, processing of the linker sequence connecting the VLb (VL against IL13) at the inner position of the Tandem-lgG with the CK domain of the IL4 binding Fab at the outer position is required for a functional IL13 binding site. In vivo processing can thereby be mediated via endogenously expressed proteases or via co-transfected Furin variants.

[2] = target: T1, human IL4 (IL004, Millipore); experiment: SPR, Biacore 3000, antibody captured by anti-human Fc, IL4 as analyte; second block of the table (presumably ExpiCHO expression), processed in vivo
Protocol: as §1, §2

[3] = target: T1, human IL4 (IL004, Millipore); experiment: SPR, Biacore 3000, antibody captured by anti-human Fc, IL4 as analyte; HEK293-FS, co-expressed with hFurin-KDEL (SEQ ID NO 38)
Protocol: as §1, §2

[4] = target: T1, human IL4 (IL004, Millipore); experiment: SPR, Biacore 3000, antibody captured by anti-human Fc, IL4 as analyte; HEK293-FS, co-expressed with hFurin (SEQ ID NO 37)
Protocol: as §1, §2

[5] = target: T1, human IL4 (IL004, Millipore); experiment: SPR, Biacore 3000, antibody captured by anti-human Fc, IL4 as analyte; HEK293-FS expression
Protocol: as §1, §2

Kd [1]: 1.05 pM
koff [1]: 0.000189 s⁻¹
kon [1]: 1.79e+08 M⁻¹ s⁻¹
Kd [2]: 1.33 pM
koff [2]: 0.000249 s⁻¹
kon [2]: 1.87e+08 M⁻¹ s⁻¹
B1: sLC-Tandem-(anti-IL4xanti-IL13)-PCL2-huIgG1 (bispecific antibody)
light: DIQMTQSPASLSVSVGDTITLTCHASQNIDVWLSWFQQKPGNIPKLLIYKASNLHTGVPSRFSGSGSGTGFTLTISSLQPEDIATYYCQQAHSYPFTFGGGTKLEIKRTVAAPSVFIFPPSDEQLKSGTASVVCLLNNFYPREAKVQWKVDNALQSGNSQESVTEQDSKDSTYSLSSTLTLSKADYEKHKVYACEVTHQGLSSPVTKSFNRGECHRRRKR
chain: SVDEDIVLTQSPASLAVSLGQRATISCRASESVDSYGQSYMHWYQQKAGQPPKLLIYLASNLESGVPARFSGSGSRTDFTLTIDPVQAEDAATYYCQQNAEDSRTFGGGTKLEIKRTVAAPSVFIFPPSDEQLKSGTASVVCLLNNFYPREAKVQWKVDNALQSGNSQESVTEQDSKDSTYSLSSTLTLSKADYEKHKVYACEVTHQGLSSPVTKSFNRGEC
heavy: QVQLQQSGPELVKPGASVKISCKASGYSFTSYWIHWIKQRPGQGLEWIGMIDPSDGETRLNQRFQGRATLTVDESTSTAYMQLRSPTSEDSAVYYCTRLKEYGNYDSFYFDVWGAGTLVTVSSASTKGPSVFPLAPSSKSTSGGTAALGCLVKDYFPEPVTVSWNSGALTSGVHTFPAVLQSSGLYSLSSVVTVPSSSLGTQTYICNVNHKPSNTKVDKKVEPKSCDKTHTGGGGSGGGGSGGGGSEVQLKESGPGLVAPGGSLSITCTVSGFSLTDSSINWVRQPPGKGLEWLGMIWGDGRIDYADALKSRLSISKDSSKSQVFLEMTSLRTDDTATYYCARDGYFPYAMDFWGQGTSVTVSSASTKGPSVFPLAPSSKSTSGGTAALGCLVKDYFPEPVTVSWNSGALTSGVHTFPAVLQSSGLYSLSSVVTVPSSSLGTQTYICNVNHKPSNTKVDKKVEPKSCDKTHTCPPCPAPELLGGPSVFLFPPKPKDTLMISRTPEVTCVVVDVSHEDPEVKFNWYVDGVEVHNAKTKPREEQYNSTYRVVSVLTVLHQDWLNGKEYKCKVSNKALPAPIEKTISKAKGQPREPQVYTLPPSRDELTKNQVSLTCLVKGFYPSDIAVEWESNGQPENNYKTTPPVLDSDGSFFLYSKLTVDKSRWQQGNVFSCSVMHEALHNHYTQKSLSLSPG
notes: also called sLC-PCL2-Tandem-IgG; sLC Tandem-IgG-PCL2

Kd [3]: 1.86 pM
koff [3]: 0.000299 s⁻¹
kon [3]: 1.61e+08 M⁻¹ s⁻¹
Kd [4]: 1.53 pM
koff [4]: 0.000211 s⁻¹
kon [4]: 1.38e+08 M⁻¹ s⁻¹
B2: sLC-Tandem-(anti-IL4xanti-IL13)-His8-PCL1-huIgG1 (bispecific antibody)
light: DIQMTQSPASLSVSVGDTITLTCHASQNIDVWLSWFQQKPGNIPKLLIYKASNLHTGVPSRFSGSGSGTGFTLTISSLQPEDIATYYCQQAHSYPFTFGGGTKLEIKRTVAAPSVFIFPPSDEQLKSGTASVVCLLNNFYPREAKVQWKVDNALQSGNSQESVTEQDSKDSTYSLSSTLTLSKADYEKHKVYACEVTHQGLSSPVTKSFNRGECRRKR
chain: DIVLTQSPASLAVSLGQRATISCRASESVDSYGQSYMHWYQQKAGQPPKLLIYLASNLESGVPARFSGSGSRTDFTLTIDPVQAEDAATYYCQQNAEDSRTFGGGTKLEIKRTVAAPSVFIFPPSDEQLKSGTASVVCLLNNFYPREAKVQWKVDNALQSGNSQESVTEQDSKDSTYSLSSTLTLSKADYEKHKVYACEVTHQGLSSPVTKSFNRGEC
heavy: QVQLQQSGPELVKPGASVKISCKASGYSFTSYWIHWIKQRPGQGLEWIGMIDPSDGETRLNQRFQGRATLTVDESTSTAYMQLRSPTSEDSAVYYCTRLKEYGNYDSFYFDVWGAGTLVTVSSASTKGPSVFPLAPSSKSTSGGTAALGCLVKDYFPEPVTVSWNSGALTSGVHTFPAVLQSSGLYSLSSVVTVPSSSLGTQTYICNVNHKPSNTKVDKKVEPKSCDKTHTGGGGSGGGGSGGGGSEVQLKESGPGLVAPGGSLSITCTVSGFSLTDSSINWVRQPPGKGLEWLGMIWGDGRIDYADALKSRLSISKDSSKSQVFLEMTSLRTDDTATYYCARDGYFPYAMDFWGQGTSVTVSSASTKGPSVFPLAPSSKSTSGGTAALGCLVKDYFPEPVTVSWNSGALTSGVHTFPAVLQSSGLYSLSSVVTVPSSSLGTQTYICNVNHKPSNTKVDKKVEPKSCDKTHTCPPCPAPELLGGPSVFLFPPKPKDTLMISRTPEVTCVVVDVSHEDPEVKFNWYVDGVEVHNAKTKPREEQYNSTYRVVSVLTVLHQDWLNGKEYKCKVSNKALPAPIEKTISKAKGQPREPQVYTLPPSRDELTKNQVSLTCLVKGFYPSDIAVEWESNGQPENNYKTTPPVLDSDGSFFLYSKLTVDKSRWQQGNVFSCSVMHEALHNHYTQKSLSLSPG
notes: In both the single light chain was processed in vivo; also called 17, 13 with 37; 17, 13 with 38

Kd [5]: 2.32 pM
koff [5]: 0.000149 s⁻¹
kon [5]: 6.39e+07 M⁻¹ s⁻¹
B3: Tandem-(anti-IL4xanti-IL13)-huIgG1 (bispecific antibody)
light 1: DIQMTQSPASLSVSVGDTITLTCHASQNIDVWLSWFQQKPGNIPKLLIYKASNLHTGVPSRFSGSGSGTGFTLTISSLQPEDIATYYCQQAHSYPFTFGGGTKLEIKRTVAAPSVFIFPPSDEQLKSGTASVVCLLNNFYPREAKVQWKVDNALQSGNSQESVTEQDSKDSTYSLSSTLTLSKADYEKHKVYACEVTHQGLSSPVTKSFNRGEC
light 2: not shown
heavy: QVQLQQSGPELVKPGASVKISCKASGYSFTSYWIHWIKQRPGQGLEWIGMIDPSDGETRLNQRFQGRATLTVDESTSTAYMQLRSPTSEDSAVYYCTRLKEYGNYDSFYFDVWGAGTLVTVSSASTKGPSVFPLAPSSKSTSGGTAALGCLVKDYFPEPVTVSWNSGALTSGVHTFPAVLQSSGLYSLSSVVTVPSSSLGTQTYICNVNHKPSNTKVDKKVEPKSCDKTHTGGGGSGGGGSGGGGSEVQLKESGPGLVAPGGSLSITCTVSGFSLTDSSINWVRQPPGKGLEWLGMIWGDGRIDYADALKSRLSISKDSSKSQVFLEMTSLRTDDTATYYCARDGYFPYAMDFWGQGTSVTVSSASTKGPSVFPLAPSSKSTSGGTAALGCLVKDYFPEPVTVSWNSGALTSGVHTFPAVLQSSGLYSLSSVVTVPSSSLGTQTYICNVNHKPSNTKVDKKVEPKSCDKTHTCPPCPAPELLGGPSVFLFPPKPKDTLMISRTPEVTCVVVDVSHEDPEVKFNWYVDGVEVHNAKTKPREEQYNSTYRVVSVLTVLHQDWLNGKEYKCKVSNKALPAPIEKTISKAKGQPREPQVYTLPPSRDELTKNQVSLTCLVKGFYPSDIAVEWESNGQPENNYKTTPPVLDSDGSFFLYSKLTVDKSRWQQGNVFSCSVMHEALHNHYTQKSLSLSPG
notes: Control with the two light chains expressed as separate chains; also called Tandem-IgG control; control Tandem-IgG
